# Measurements as given in patent publication US8889130B2, “Treatment of osteoarthritis and pain” (Abbvie Inc., priority 2011, dated 2014).
# T1: hIL-1α (Homo sapiens, UniProt P01583)
# T1 sequence (P01583 113-271): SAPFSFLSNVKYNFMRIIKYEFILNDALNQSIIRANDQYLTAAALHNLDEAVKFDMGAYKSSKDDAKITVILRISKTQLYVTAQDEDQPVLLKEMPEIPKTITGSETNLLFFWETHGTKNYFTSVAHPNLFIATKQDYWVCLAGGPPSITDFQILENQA
# Columns and labels:
# hIL-1α = molecular target: T1, hIL-1α; assay: Surface plasmon resonance (Biacore) binding kinetics and affinity to hIL-1α; conditions: antigen hIL-1α; for Kd: KD=koff/kon
# Protocol: The kinetics of DVD-Ig molecules binding to rhIL1-α and rhIL1-β was determined by surface plasmon resonance-based measurements with a Biacore 3000 instrument (Biacore AB, Uppsala, Sweden) using HBS-EP (10 mM HEPES, pH 7.4, 150 mM NaCl, 3 mM EDTA, and 0.005% surfactant P20) at 25° C. All chemicals were obtained from Biacore AB (Uppsala, Sweden) or otherwise from a different source as described herein. Approximately, 5000 RU of goat anti-human IgG Fcγ fragment specific polyclonal antibody (Pierce Biotechnology Inc, Rockford, Ill.) diluted in 10 mM sodium acetate (pH 4.5) was directly immobilized across a CM5 research grade biosensor chip using a standard amine coupling kit according to manufacturer's instructions and procedures at […]. Unreacted moieties on the biosensor surface were blocked with ethanolamine. Modified carboxymethyl dextran surface in flowcell 2 and 4 was used as a reaction surface. Unmodified carboxymethyl dextran without goat anti-human IgG in flow cell 1 and 3 was used as the reference surface. For kinetic analysis, rate equations derived from the 1:1 Langmuir binding model were fitted simultaneously to association and dissociation phases of all ten injections (using global fit analysis) using the Bioevaluation 4.0.1 software. Purified DVD-Ig samples were diluted in HEPES-buffered saline for capture across goat anti-human IgG Fc specific reaction surfaces and injected over reaction matrices at a flow rate of […]. The association and dissociation rate constants, kon (M-1s-1) and koff (s-1) were determined under a continuous flow rate of […]. Rate constants were derived by making kinetic binding measurements at ten different antigen concentrations ranging from 1.25 to 1000 nM. The equilibrium dissociation constant (M) of the reaction between DVD-Ig molecule and rhIL1α/β was then calculated from the kinetic rate constants by the following formula: KD=koff/kon. Aliquots of rhIL1α/β samples were also simultaneously injected over a blank reference and reaction CM surface to record and subtract any nonspecific binding background to eliminate the majority of the refractive index change and injection noise. Surfaces were regenerated with two subsequent […] injections of 10 mM Glycine (pH 1.5) at a flow rate of […]. The anti-Fc antibody immobilized surfaces were completely regenerated and retained their full capture capacity over twelve cycles. The apparent stoichiometry of the captured DVD-Ig-rhIL1α/β complex was calculated under saturating binding conditions (steady-state equilibrium) using the following formula: […]
# [1] = Size exclusion chromatography (SEC): physical homogeneity and in vitro stability; type: physicochemical; conditions: for Ab (intact antibody) / Agg (aggregates) / Frgm (fragments): 0.2-0.4 mg/ml in PBS; for Ab (intact antibody) / Agg (aggregates) / Frgm (fragments) / aggregation and fragmentation in stability analysis: SEC; for aggregation and fragmentation in stability analysis: PBS, freeze-thaw, 4, 25, 40° C. for 4 and 8 weeks; for SEC profile of purified protein (physical homogeneity): purified protein in PBS
# Protocol: For measuring molecular weight (MW) of light and heavy chains of DVD-Ig binding protein, 10 μL of DVD-Ig molecule (0.8 μg/μL) was reduced by 1.0 M DTT solution (5 μL). A PLRP-S, 8μ, 4000 A, and 1×150 mm protein column (Michrom BioResource, Auburn, Mass.) was used to separate heavy and light chains of DVD-Ig molecule. Agilent HP1100 Capillary HPLC (Agilent Technologies Inc., Pala Alto, Calif.) was used with the mass spectrometer QSTAR (Applied Biosystems, Foster City, Calif.). The valco valve was set at 10 minutes to switch the flow from waste to MS for desalting sample. Buffer A was 0.02% TFA, 0.08% FA, 0.1% ACN and 99.8% HPLC-H2O. Buffer B contained 0.02% TFA, 0.08% FA, 0.1% HPLC-H2O, and 99.8% ACN. The HPLC flow rate was 50 μL/minute and the sample injection volume was […]. The temperature of the column oven was set at 60° C., and separation gradient was: 5% B for 5 minutes; 5% B to 65% B for 35 minutes; 65% B to 95% B for another 5 minutes, and 95% B to 5% B for 5 minutes. TOFMS scan was from 800 to 2500 amu, and cycles were 3600. To determine the MW of full length DVD-Ig binding protein, a Protein MicroTrap cartridge (Michrom BioResource, Auburn, Mass.) was used for desalting the sample. The HPLC gradient was: 5% B for 5 minutes; 5% B to 95% B in 1 minute; and from 95% B to 5% B in another 4 minutes. The QSTAR TOFMS scan was from 2000 to 3500 amu, and cycles were 899. All MS raw data were analyzed using the Analyst QS software (Applied Biosystems). For SEC analysis of the DVD-Ig binding protein, purified DVD-Ig binding protein and chimeric Abs, in PBS, were applied on a Superose 6 10/300 G2, 300×10 mm column (Amersham Bioscience, Piscataway, N.J.). An HPLC instrument, Model 10A (Shimadzu, Columbia, Md.) was used for SEC. All proteins were determined using UV detection at 280 nm and 214 nm. The elution was isocratic at a flow rate of 0.5 mL/minute. For stability study, samples in the concentration range of 0.2-0.4 mg/ml in PBS underwent 3 freeze-thaw cycles between −80° C. and 25° C., or were incubated at 4° C., 25° C., or 40° C., for 4 weeks and 8 weeks, followed by SEC analysis.
# In order to determine the precise molecular weight of the DVD-Ig binding proteins, mass spectrometry was employed. […] To further study the physical properties of DVD-Ig binding protein in solution, size exclusion chromatography (SEC) was used to analyze each protein.
# The physical stability of DVD-Ig was tested as follows. Purified antibodies in the concentration range of 0.2-0.4 mg/ml in PBS underwent 3 freeze-thaw cycles between −80° C. and 25° C., or were incubated at 4° C., 25° C., or 40° C., for 4 weeks and 8 weeks, followed by analysis using size exclusion chromatography (SEC) analysis (see Table 12).
# [2] = 3xFreeze-Thaw between −80° C. and 25° C.
Molecule,koff (hIL-1α) [s⁻¹],kon (hIL-1α) [M⁻¹ s⁻¹],Kd (hIL-1α) [nM],"Ab (intact antibody) [1, 2] [percentage]","Agg (aggregates) [1, 2] [percentage]","Frgm (fragments) [1, 2] [percentage]",Ab (intact antibody) ([1]; 4° C. @ 4 Wks) [percentage],Agg (aggregates) ([1]; 4° C. @ 4 Wks) [percentage],Frgm (fragments) ([1]; 4° C. @ 4 Wks) [percentage],Ab (intact antibody) ([1]; 4° C. @ 8 Wks) [percentage],Agg (aggregates) ([1]; 4° C. @ 8 Wks) [percentage],Frgm (fragments) ([1]; 4° C. @ 8 Wks) [percentage],Ab (intact antibody) ([1]; 25° C. @ 4 Wks) [percentage],Agg (aggregates) ([1]; 25° C. @ 4 Wks) [percentage],Frgm (fragments) ([1]; 25° C. @ 4 Wks) [percentage],Ab (intact antibody) ([1]; 25° C. @ 8 Wks) [percentage],Agg (aggregates) ([1]; 25° C. @ 8 Wks) [percentage],Frgm (fragments) ([1]; 25° C. @ 8 Wks) [percentage],Ab (intact antibody) ([1]; 40° C. @ 4 Wks) [percentage],Agg (aggregates) ([1]; 40° C. @ 4 Wks) [percentage],further results
"DVD1-Ig: DVD-Ig binding hIL-1α and hIL-1β; VH/VL of 13F5.G5 fused directly to N-terminus of 3D12.E3 VH/VL, no linker (antibody) VH: MQLSGLTSEDSAMYFCVRFPTGNDYYAMDYWGQGTSVTVSSQIQLVQSGPELKKPGETVKISCKASGYTFRNYGMNWVKQAPGKDLKRMAWINTYTGESTYADDFKGRFAFSLETSASTAYLQINNLKNEDTATYFCARGIYYYGSSYAMDYWGQGTSVTVSS VL: PVEADDAATYYCQQNNEDPFTFGSGTKLEIKRNIQMTQTTSSLSASLGDRVTISCRASQDISNCLNWYQQKPDGTVKLLIYYTSRLHSGVPSRFSGSGSGTDYSLTISNLEQEDIATYFCQQGKTLPYAFGGGTKLEINRR",0.000105,37000,2.83,53.50,46.50,0.00,56.63,42.43,0.94,56.91,38.18,4.91,54.34,45.66,0.00,67.39,24.42,8.19,59.42,36.70,Stoichiometry (hIL-1α; saturating binding conditions): 1.8; Frgm (fragments) ([1]; 40° C. @ 4 Wks): 3.88 percentage; Ab (intact antibody) ([1]; 40° C. @ 8 Wks): 67.16 percentage; Agg (aggregates) ([1]; 40° C. @ 8 Wks): 20.55 percentage; Frgm (fragments) ([1]; 40° C. @ 8 Wks): 12.29 percentage; aggregation and fragmentation in stability analysis [1]: showed aggregations in PBS under different conditions; SEC profile of purified protein (physical homogeneity) [1]: a major peak as well as a shoulder peak on the right
DVD2-Ig: DVD-Ig as DVD1-Ig but with linkers ADAAP (light chain) and AKTTPP (heavy chain) (antibody) VH: MQLSGLTSEDSAMYFCVRFPTGNDYYAMDYWGQGTSVTVSSAKTTPPQIQLVQSGPELKKPGETVKISCKASGYTFRNYGMNWVKQAPGKDLKRMAWINTYTGESTYADDFKGRFAFSLETSASTAYLQINNLKNEDTATYFCARGIYYYGSSYAMDYWGQGTSVTVSS VL: PVEADDAATYYCQQNNEDPFTFGSGTKLEIKRADAAPNIQMTQTTSSLSASLGDRVTISCRASQDISNCLNWYQQKPDGTVKLLIYYTSRLHSGVPSRFSGSGSGTDYSLTISNLEQEDIATYFCQQGKTLPYAFGGGTKLEINR,0.000252,73500,3.42,100.0,0.0,0.0,100.0,0.0,0.0,100.0,0.0,0.0,100.0,0.0,0.0,100.0,0.0,0.0,100.0,0.0,"Frgm (fragments) ([1]; 40° C. @ 4 Wks): 0.0 percentage; Ab (intact antibody) ([1]; 40° C. @ 8 Wks): 100.0 percentage; Agg (aggregates) ([1]; 40° C. @ 8 Wks): 0.0 percentage; Frgm (fragments) ([1]; 40° C. @ 8 Wks): 0.0 percentage; aggregation and fragmentation in stability analysis [1]: Neither aggregation nor fragmentation was detected; maintained as intact monomeric molecule ([1]; all conditions tested (freeze-thaw; 4, 25, 40° C. for 4 and 8 weeks)): 100%; SEC profile of purified protein (physical homogeneity) [1]: a single peak"
